Measured values: patent CN111662383A (ZHUHAI LIVZON MCAB BIOTECHNOLOGY CO LTD; DINGFU BIOTARGET …, dated 2020)
Read-outs that look alike come from different tables or passages of the source.

T1: hB7H4细胞 (HEK293 cells expressing human B7H4-EGFP) (human, UniProt Q7Z7D3 25-282)
T1 construct: also called hB7H4-EGFP; not shown: enhanced green fluorescent protein EGFP, UniProt C5MKY7
T1 sequence (looked up): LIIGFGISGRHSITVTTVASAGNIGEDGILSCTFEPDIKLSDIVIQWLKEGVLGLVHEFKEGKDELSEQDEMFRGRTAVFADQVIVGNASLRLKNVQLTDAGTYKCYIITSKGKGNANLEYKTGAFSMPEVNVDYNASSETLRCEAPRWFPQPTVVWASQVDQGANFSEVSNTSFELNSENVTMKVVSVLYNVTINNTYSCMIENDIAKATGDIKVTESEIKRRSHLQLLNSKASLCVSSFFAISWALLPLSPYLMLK

T2: hB7H3-EGFP细胞 (HEK293 cells expressing human B7H3-EGFP) (human, UniProt Q5ZPR3 29-534)
T2 construct: not shown: enhanced green fluorescent protein EGFP, UniProt C5MKY7
T2 sequence (looked up): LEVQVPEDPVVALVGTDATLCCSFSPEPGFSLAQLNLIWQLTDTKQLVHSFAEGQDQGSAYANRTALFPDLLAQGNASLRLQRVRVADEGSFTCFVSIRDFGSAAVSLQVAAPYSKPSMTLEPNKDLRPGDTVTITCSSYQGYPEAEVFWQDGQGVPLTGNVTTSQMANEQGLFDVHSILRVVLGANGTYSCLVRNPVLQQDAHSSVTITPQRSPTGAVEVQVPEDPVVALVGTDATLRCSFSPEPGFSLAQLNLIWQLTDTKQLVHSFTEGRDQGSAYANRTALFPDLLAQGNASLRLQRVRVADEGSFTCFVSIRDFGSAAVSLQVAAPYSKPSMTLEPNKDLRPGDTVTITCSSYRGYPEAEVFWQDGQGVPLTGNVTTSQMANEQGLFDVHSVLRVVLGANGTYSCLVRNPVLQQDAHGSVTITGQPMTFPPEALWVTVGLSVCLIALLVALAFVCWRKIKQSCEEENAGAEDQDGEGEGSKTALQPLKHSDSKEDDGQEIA


Tests used:
[1] = target: T3, PD-L1 (in the mixed lymphocyte reaction of human dendritic cells and CD4+ T cells) (human, UniProt Q9NZQ7 19-290); test: cell-based or functional assay
T3 sequence (Q9NZQ7 19-290 limits assumed): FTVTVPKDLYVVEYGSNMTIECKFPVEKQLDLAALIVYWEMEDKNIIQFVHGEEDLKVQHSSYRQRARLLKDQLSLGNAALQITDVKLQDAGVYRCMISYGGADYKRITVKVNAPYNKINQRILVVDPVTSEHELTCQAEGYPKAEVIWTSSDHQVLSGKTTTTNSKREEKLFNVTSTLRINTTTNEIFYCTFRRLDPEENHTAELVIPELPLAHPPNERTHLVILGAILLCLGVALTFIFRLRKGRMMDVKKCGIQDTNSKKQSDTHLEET

[2] = target: T4, hPD-L1-Fc (human, UniProt Q9NZQ7 19-238); test: ELISA blocking assay, hPD-L1-Fc coated, competitor PD-1-Biotin 10μg/ml
T4 construct: range 1-238; The stated range 1-238 begins at residue 1 and so includes the native signal peptide; No linker is stated; also called hPD-L1-Fc融合蛋白
T4 sequence (Q9NZQ7 19-238 limits assumed, form in doubt): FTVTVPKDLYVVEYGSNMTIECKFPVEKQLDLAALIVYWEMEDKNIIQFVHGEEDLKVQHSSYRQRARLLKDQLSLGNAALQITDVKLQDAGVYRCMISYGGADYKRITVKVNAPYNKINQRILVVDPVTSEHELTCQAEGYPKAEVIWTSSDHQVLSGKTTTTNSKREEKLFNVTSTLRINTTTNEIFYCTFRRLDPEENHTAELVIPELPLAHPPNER

[3] = target: T3, PD-L1 (in the mixed lymphocyte reaction …); test: cell-based or functional assay; remark: listed apart in the source
[4] = target: T5, 重组的人PD-L1-His (human, UniProt Q9NZQ7 19-238, limits assumed); test: BLI (Octet K2), antibody on AHC sensor, hPD-L1-His analyte
T5 construct: Analyte in the BLI assays; also called hPD-L1-His; hPD-L1; not shown: His tag
T5 sequence (Q9NZQ7 19-238 limits assumed): as the sequence (Q9NZQ7 19-238 limits assumed, form in doubt) above

[5] = target: T5, 重组的人PD-L1-His; test: BLI as in Example 4, hPD-L1-His analyte
[6] = target: T5, 重组的人PD-L1-His; test: BLI as in Example 4, hPD-L1-His analyte; remark: listed apart in the source
[7] = target: T3, PD-L1 (in the mixed lymphocyte reaction …); test: cell-based or functional assay; remark: listed apart in the source
[8] = target: T6, hPD-L1-EGFP细胞 (HEK293 cells expressing human PD-L1-EGFP) (human, UniProt Q9NZQ7 19-290); test: FACS on PD-L1-EGFP cells
T6 construct: Fusion expressed on transfected HEK293 cells; junction between PD-L1 and EGFP not described; also called 细胞表面PD-L1; not shown: enhanced green fluorescent protein EGFP, UniProt C5MKY7
T6 sequence (Q9NZQ7 19-290): as the sequence (Q9NZQ7 19-290 limits assumed) above

[9] = target: T5, 重组的人PD-L1-His; test: BLI (Octet K2), antibody on AMC sensor, hPD-L1-His analyte
[10] = target: T7, hPD-1-EGFP细胞 (HEK293 cells expressing human PD-1-EGFP) (human, UniProt Q15116 25-288); test: FACS on transfected HEK293 cells
T7 construct: Fusion expressed on transfected HEK293 cells; not shown: enhanced green fluorescent protein EGFP, UniProt C5MKY7
T7 sequence (Q15116 25-288): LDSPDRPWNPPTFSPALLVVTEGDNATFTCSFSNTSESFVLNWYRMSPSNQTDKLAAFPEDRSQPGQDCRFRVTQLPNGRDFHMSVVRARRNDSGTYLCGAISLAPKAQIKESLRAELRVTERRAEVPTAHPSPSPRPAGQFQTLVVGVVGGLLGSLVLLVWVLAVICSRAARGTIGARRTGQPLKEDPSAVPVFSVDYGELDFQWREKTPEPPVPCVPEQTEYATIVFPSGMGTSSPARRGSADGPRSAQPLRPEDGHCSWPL

[11] = target: T8, mPD-L1细胞 (HEK293 cells expressing mouse PD-L1-EGFP) (mouse, UniProt Q9EP73 19-290); test: FACS on transfected HEK293 cells
T8 construct: also called mPD-L1-EGFP; 小鼠PD-L1; not shown: enhanced green fluorescent protein EGFP, UniProt C5MKY7
T8 sequence (Q9EP73 19-290): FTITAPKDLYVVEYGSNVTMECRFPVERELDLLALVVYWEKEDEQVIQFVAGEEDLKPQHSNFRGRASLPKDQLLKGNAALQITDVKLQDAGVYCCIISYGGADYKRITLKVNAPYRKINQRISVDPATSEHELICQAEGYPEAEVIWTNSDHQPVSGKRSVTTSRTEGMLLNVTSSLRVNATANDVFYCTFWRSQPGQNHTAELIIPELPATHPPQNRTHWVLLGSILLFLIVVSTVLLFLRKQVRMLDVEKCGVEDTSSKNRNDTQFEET

[12] = target: T1, hB7H4细胞 (HEK293 cells expressing human …); test: FACS on transfected HEK293 cells
[13] = target: T2, hB7H3-EGFP细胞 (HEK293 cells expressing …); test: FACS on transfected HEK293 cells

Row | Binder | EC50 of IFN-γ secretion in mixed lymphocyte reaction (MLR) [1] | IC50 [2] | Kd [4] | koff [4] | kon [4] | EC50 of IFN-γ secretion in mixed lymphocyte reaction (MLR) [7] | EC50 [8] | Kd [9] | koff [9] | kon [9] | binding result [10] | binding result [11] | binding result [12] | binding result [13] | other results
1 | 人源化抗体7A3 3-3 (antibody, V domains shown, Humanized; also called 7A3VLV3 + 7A3VHV3) VH: QVQLQESGPGLVKPSETLSLTCTVSGDSITSGYWNWIRKPPGNGLEYMGYISYTGSTYYNPSLKSRITITRDTSKNQYSLKLSSVTAADTAVYYCARFGLWHLPAALDYWGQGTLVTVSS VL: DIVLTQSPATLSLSPGERATLSCSAKSSISYMHWYQQKPGTSPKRWIYDTSKLASGVPARFSGSGSGTSYTLTISSLEPEDFAVYYCHQRSSYPFTFGQGTKVEIK | 0.0285 µg/mL | 1.44 µg/mL | 2.85 nM | 0.00128 s⁻¹ | 449000 M⁻¹ s⁻¹ | – | – | – | – | – | – | – | – | – | EC50 of IFN-γ secretion in mixed lymphocyte reaction (MLR) [3]: 0.449 µg/mL; Kd [5]: 13.2 nM; koff [5]: 0.00547 s⁻¹; kon [5]: 415000 M⁻¹ s⁻¹
2 | 7A3 3-3QG (antibody, V domains shown, human IgG1 format as for 7A3 3-3; also called 7A3 3-3 with N43Q in VH) VH: QVQLQESGPGLVKPSETLSLTCTVSGDSITSGYWNWIRKPPGQGLEYMGYISYTGSTYYNPSLKSRITITRDTSKNQYSLKLSSVTAADTAVYYCARFGLWHLPAALDYWGQGTLVTVSS VL: DIVLTQSPATLSLSPGERATLSCSAKSSISYMHWYQQKPGTSPKRWIYDTSKLASGVPARFSGSGSGTSYTLTISSLEPEDFAVYYCHQRSSYPFTFGQGTKVEIK | 1.05 µg/mL | – | – | – | – | – | – | – | – | – | – | – | – | – | –
3 | 人源化抗体7A3 1-3 (antibody, V domains shown, Humanized; also called 7A3VLV1 + 7A3VHV3) VH: QVQLQESGPGLVKPSETLSLTCTVSGDSITSGYWNWIRKPPGNGLEYMGYISYTGSTYYNPSLKSRITITRDTSKNQYSLKLSSVTAADTAVYYCARFGLWHLPAALDYWGQGTLVTVSS VL: DIVLTQSPATLSLSPGERATLSCSAKSSISYMHWYQQKPGQAPRLLIYDTSKLASGVPARFSGSGSGTDFTLTISSLEPEDFAVYYCHQRSSYPFTFGQGTKVEIK | – | 1.82 µg/mL | 23.6 nM | 0.0119 s⁻¹ | 504000 M⁻¹ s⁻¹ | – | – | – | – | – | – | – | – | – | EC50 of IFN-γ secretion in mixed lymphocyte reaction (MLR) [3]: ~0.176 µg/mL
4 | 人源化抗体8G1 3-3 (antibody, V domains shown, Humanized; also called 8G1VLV3 + 8G1VHV3) VH: QVQLVQSGAEVKKPGASVKVSCKASGYTFTEYIIHWVKQAPGQGLEWIGWFYPGSGNIRYNEKFKDKATLTADKSSSTVYMELSSLRSEDTAVYFCARHEDKGAWFAYWGQGTLVTVSS VL: DIVLTQSPATLSLSPGERATLSCSASSNVSYMYWYQQKPGQSPKPWIYLTSNLASGVPARFTGSGSGTSYTLTISSLEPEDFAVYYCQQWSSNPLTFGQGTKVEIK | – | 1.24 µg/mL | 0.0163 nM | 5.79e-06 s⁻¹ | 355000 M⁻¹ s⁻¹ | – | – | – | – | – | – | – | – | – | –
5 | 8G1 3-3NG (antibody, V domains shown, Glycosylation-site variant of humanized 8G1 3-3; human IgG1 format as for 8G1 3-3; also called 8G1 3-3 with N28 mutated in VL) VH: QVQLVQSGAEVKKPGASVKVSCKASGYTFTEYIIHWVKQAPGQGLEWIGWFYPGSGNIRYNEKFKDKATLTADKSSSTVYMELSSLRSEDTAVYFCARHEDKGAWFAYWGQGTLVTVSS VL: DIVLTQSPATLSLSPGERATLSCSASSQVSYMYWYQQKPGQSPKPWIYLTSNLASGVPARFTGSGSGTSYTLTISSLEPEDFAVYYCQQWSSNPLTFGQGTKVEIK | – | – | – | – | – | – | – | – | – | – | – | – | – | – | Kd [6]: 6.89 nM; koff [6]: 0.00174 s⁻¹; kon [6]: 252000 M⁻¹ s⁻¹
6 | 抗体5A5 (antibody, V domains shown, Mouse antibody purified from hybridoma supernatant on protein A) VH: EVQLQESGPSLVKPSQTLSLTCSVTGDSITSGYWNWIRKFPGNKLEYMGYISYTGSTYYNPSLKSRISITRDTSKNQYYLQLNSVTTEDTATYYCAKYGLWHLPAAMDYWGQGTSVTVSS VL: DIVLTQSPAIMSASPGEKVTMTCSASSSISYMHWYQQKPGTSPKRWIYDTSKLASGVPARFSGSGSGTSYSLTISSMEAEDAATYYCHQRSSYPFTFGSGTKLEIK | – | – | – | – | – | 0.104 µg/mL | 1.33 µg/mL | 5.75 nM | 0.00453 s⁻¹ | 788000 M⁻¹ s⁻¹ | no binding (tested: 10μg/ml) | no binding (tested: 10μg/ml) | no binding (tested: 10μg/ml) | no binding (tested: 10μg/ml) | –
7 | 抗体7A3 (antibody, V domains shown, Mouse antibody purified from hybridoma supernatant on protein A) VH: EVQLQESGPSLVKPSQTLSLTCSVTGDSITSGYWNWIRKFPGNDLEYMGYISYTGSTYYNPSLKSRISITRDTSKNQYYLQLNSVTTEDTATYYCARFGLWHLPAALDYWGQGTSVTVSS VL: DIVLTQSPAIMSASPGEKVTMTCSAKSSISYMHWYQQKPGTSPKRWIYDTSKLASGVPARFSGSGSGTSYSLTISSMEAEDAATYYCHQRSSYPFTFGSGTKLEIK | – | – | – | – | – | 0.0588 µg/mL | 2.76 µg/mL | 4.29 nM | 0.0036 s⁻¹ | 840000 M⁻¹ s⁻¹ | no binding (tested: 10μg/ml) | no binding (tested: 10μg/ml) | no binding (tested: 10μg/ml) | no binding (tested: 10μg/ml) | –

The next lines start with results.

Row | EC50 of IFN-γ secretion in mixed lymphocyte reaction (MLR) [1] | IC50 [2] | Kd [4] | koff [4] | kon [4] | EC50 of IFN-γ secretion in mixed lymphocyte reaction (MLR) [7] | EC50 [8] | Kd [9] | koff [9] | kon [9] | binding result [10] | binding result [11] | binding result [12] | binding result [13] | Binder | other results
8 | 0.576 µg/mL | – | – | – | – | – | – | – | – | – | – | – | – | – | 7A3 3-3ND (antibody, V domains shown, human IgG1 format as for 7A3 3-3; also called 7A3 3-3 with G44D in VH) VH: QVQLQESGPGLVKPSETLSLTCTVSGDSITSGYWNWIRKPPGNDLEYMGYISYTGSTYYNPSLKSRITITRDTSKNQYSLKLSSVTAADTAVYYCARFGLWHLPAALDYWGQGTLVTVSS VL: DIVLTQSPATLSLSPGERATLSCSAKSSISYMHWYQQKPGTSPKRWIYDTSKLASGVPARFSGSGSGTSYTLTISSLEPEDFAVYYCHQRSSYPFTFGQGTKVEIK | Kd [5]: 14.4 nM; koff [5]: 0.00631 s⁻¹; kon [5]: 438000 M⁻¹ s⁻¹
9 | – | – | – | – | – | ~0.03 µg/mL | 2.25 µg/mL | 2.32 nM | 0.00117 s⁻¹ | 504000 M⁻¹ s⁻¹ | no binding (tested: 10μg/ml) | no binding (tested: 10μg/ml) | no binding (tested: 10μg/ml) | no binding (tested: 10μg/ml) | 抗体8G1 (antibody, V domains shown, Mouse antibody purified from hybridoma supernatant on protein A) VH: KVQLRQSGAELVKPGTSVKLSCKASGYTFTEYIIHWVKQRSGQGLEWIGWFYPGSGNIRYNEKFKDKATLTADKSSSTVYMELSRLTSEDSAVYFCARHEDKGAWFAYWGQGTLVTVSA VL: DIVLTQSPALLSASPGEKVTMTCSASSNVSYMYWYQQKPRSSPKPWIYLTSNLASGVPARFTGSGSGTSYSLTISSMEAEDGATYYCQQWSSNPLTFGAGTKLEVK | –
